Reference: publication PMC5507773, “Argonaute Utilization for miRNA Silencing Is Determined by Phosphorylation-Dependent Recruitment of LIM-Domain-Containing Proteins” (Cell Reports, 2017)
Values belong to the binder of their own block, whether it stands above or below them.

Target: T1, purified un-tagged AGO2 (hAGO2) (human, UniProt Q9UKV8 1-859)
T1 construct: AGO2, human, un-tagged; also called un-tagged crystallography grade hAGO2; source: purified, un-tagged, crystallography grade (De and Macrae, 2011)
Test: pull-down; MBP direct binding assay: purified un-tagged hAGO2 with MBP-VO, MBP-LIMD1 or MBP-LIMD1 140-166
Conditions: both partners purified

T1 sequence (Q9UKV8 whole entry): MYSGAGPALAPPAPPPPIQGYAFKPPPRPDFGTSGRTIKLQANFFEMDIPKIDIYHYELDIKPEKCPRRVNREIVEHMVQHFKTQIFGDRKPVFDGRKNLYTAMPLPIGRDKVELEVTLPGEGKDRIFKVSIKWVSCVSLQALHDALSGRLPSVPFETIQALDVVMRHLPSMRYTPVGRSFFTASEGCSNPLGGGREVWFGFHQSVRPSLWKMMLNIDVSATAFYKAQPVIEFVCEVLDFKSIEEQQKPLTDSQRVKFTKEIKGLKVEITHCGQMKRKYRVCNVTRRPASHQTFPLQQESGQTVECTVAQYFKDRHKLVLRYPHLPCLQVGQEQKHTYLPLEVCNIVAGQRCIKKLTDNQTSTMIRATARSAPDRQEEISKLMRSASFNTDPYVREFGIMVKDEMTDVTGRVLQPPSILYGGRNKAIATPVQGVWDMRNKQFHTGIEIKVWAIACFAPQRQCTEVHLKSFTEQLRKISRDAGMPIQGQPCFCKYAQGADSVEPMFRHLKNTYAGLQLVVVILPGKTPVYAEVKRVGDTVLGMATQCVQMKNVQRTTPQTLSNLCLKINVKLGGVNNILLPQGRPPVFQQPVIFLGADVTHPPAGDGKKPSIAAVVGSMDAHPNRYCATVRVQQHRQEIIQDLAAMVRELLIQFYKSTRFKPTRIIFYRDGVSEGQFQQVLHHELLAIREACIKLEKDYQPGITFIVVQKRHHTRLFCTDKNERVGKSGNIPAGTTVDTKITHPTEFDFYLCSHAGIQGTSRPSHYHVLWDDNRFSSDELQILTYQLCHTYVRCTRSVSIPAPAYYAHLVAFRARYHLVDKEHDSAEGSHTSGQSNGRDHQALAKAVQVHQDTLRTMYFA

binding result: binds
B1: maltose binding protein (MBP)-tagged full-length LIMD1 (natural protein)
chain: not shown
notes: LIMD1, full length; also called MBP-LIMD1; MBP-LIMD1 full-length; source: recombinant, purified (details in Supplemental Experimental Procedures)

binding result: binds
B2: MBP-LIMD1 140–166 (AB motif) (domain or fragment, UniProt Q9UGP4 140-166, looked up)
chain: GTRHGSQDCGSRESLATSEMSAFHQPG
notes: source: recombinant, purified (details in Supplemental Experimental Procedures)
